The record followed here is paper PMC3909184.

The target in this test is CXCR4 (human) (UniProt P61073).
Chain of UniProt P61073 (P61073 whole entry): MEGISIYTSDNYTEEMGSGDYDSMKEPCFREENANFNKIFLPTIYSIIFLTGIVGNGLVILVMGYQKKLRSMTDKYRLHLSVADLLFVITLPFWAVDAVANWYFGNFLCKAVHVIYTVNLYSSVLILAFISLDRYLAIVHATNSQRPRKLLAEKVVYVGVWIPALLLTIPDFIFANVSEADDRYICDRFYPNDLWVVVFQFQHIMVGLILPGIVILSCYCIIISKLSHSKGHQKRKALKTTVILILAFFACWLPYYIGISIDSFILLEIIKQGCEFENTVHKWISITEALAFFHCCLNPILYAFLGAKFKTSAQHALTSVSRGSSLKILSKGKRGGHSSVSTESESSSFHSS

“WT CXCL12 (from UniProt P48061 22-93) (ligand)” showed an EC50 of Kir3* K+ current activation (TEVC, -50 mV) in Xenopus oocytes co-expressing CXCR4 and Kir3.1* or Kir3.4*; dose-response of 23 nM.
